From patent US20250326828A1 (STAIDSON BEIJING BIOPHARMACEUTICALS, published 2025)
Substitutions are numbered along the chain they refer to. Read-outs that look alike come from different tables or passages of the source.

B1: GDF-R36-rabIg1 (antibody, V domains shown)
VH: QSLEESGGRLVTPGTPLTLTCTASGFSLSNYYMSWVRQAPGEGLEWIGMISFSGTTYATWAKGRFTISKTSTTVDLKITSPTTEDTATYFCARVVYAGWTYPLGIWGPGTLVTVSS
VL: DPVLTQTPASVSEPVGGTVTIKCQASQSISSVLSWYQQKPGQPPKVLIYEASTLASGVPSRFKGSGSGTDFTLTISDLECADAATYYCQANYDVYNYGNPFGGGTEVVVK
notes: Full-length rabbit antibody: rabbit IgG1 heavy constant and rabbit light constant; also called GDF15-R36-rabIg1
B2: GDF-R35-rabIg1 (antibody, V domains shown)
VH: B1 VH
VL: B1 VL with D1A, P2I, V3N, L4M, L54Q
notes: Full-length rabbit antibody: rabbit IgG1 heavy constant and rabbit light constant; also called GDF15-R35-rabIg1
B3: GDF-R37-rabIg1 (antibody, V domains shown)
VH: B1 VH with S2Q, E4K, V114I
VL: B1 VL with D1A, P2V, P8A, V46A, T53I
notes: Full-length rabbit antibody: rabbit IgG1 heavy constant and rabbit light constant; also called GDF15-R37-rabIg1
B4: GDF-R45-rabIg1 (antibody, V domains shown)
VH: B1 VH with L3V, E4K, N30D, S34T, T70A
VL: B1 VL with D1Y, P2V, V3M, L4M, A9P
notes: Full-length rabbit antibody: rabbit IgG1 heavy constant and rabbit light constant; also called GDF15-R45-rabIg1
B5: GDF-R44-rabIg1 (antibody, V domains shown)
VH: QSVKESGGRLVTPGTPLTLTCKASGFSLSTYWMSWVRQAPGKGLEWIGTIYAGSGGTWYASWVKGRFTISKTSTTVDLKMTSLTTEDTATYFCVRGPNYSDAIWGPGTLVTVSS
VL: DIVLTQTAASVSEPVGGTVTIKCQASEYIYSSLAWYQQKPGQPPKLLIYDASDLASGVPSRFKGSGYGTEFTLTISGVQCGDAATYYCQCTDLSSSAGNTFGGGTEVVVK
notes: Full-length rabbit antibody: rabbit IgG1 heavy constant and rabbit light constant; also called GDF15-R44-rabIg1
B6: GDF-R54-rabIg1 (antibody, V domains shown)
VH: QQLKESGGRLVTPGTPLTLTCTVSGFSLSSYDMTWVRQVPGKGLEWIGIINNSGNTYYASWAKGRFTISKTSTTVDLKITSPTTEDTATYFCARGILVYADYGDHNLWGPGTLVTVSS
VL: DVVMTQTASPVSAAVGGTVTINCQASEDIYTNLAWFQQKPGQPPKLLIYAASTLASGVPSRFSGSGSGTEFTLTISGLQCDDAATYFCLGVYTYISADGAFGGGTEVVVK
notes: Full-length rabbit antibody: rabbit IgG1 heavy constant and rabbit light constant; also called GDF15-R54-rabIg1
B7: hum_R37-10 (antibody, V domains shown)
VH: EVQLVESGGGLVKPGGSLRLSCAASGFSLSNYYMSWVRQAPGKGLEWIGMISFSGTTYATWAKGRFTISRDDSKNTVYLQINSLKTEDTAVYFCARVVYAGWTYPLGIWGQGTLVTVSS
VL: DIQMTQSPSSLSASVGDRVTITCQASQSISSVLSWYQQKPGKPPKALIYEASILASGVPSRFSGSGSGTDFTLTISSLQPEDFATYYCQANYDVYNYGNPFGGGTKVEIK
notes: Tested in human IgG1 format
B8: hum_R37-4 (antibody, V domains shown)
VH: B7 VH
VL: B7 VL with M4L
notes: Tested in human IgG1 format
B9: hum_R37-6 (antibody, V domains shown)
VH: B7 VH with I48V, V77L, I81M
VL: B7 VL with M4L
notes: Tested in human IgG1 format
B10: hum_R37-12 (antibody, V domains shown)
VH: B7 VH with I48V, V77L, I81M
VL: B7 VL
notes: Tested in human IgG1 format
B11: hum_R37-16 (antibody, V domains shown)
VH: B7 VH
VL: B7 VL with A46L
notes: Tested in human IgG1 format
B12: hum_R37-17 (antibody, V domains shown)
VH: B7 VH with I48V
VL: B7 VL with A46L
notes: Tested in human IgG1 format
B13: hum_R37-14 (antibody, V domains shown)
VH: EVQLVESGGGLVKPGGSLRLSCAASGFSLSNYYMSWVRQAPGKGLEWIGMISFSGTTYATWAKGRFTISKDSSTVYLQINSLKTEDTAVYFCARVVYAGWTYPLGIWGQGTLVTVSS
VL: B7 VL with A46L
notes: Tested in human IgG1 format
B14: GDF-R31-rabIg1 (antibody, V domains shown)
VH: QQLKESGGRLVTPGTPLTLTCTVSGFSLSDYYMSWVRQAPGKGLEWIGDIYGGSGTTDYASWVKGRFTISKTSTTVDLRIASPTTEDTATYFCGRGITADIWGPGTLVTVSL
VL: DIVLTQTPASVEAAVGGTVTIKCQASQSISSYLAWYQQKPGQPPKLLIYKASTLASGVPSRFKGSGSGTEFTLTISDLECADAATYYCRCIYGDSYGAAFGGGTEVVVQ
notes: Full-length rabbit antibody: rabbit IgG1 heavy constant (pTTa1-rab Ig1-H) and rabbit light constant (pTTa1-rab-CLB4); also called GDF15-R31-rabIg1

Columns and labels:
human GDF15-hFc [1] = biological target: T1, human GDF15-hFc (human); assay: competition ELISA; GFRAL-his coated, antibody titrated against human GDF15-hFc, anti-human IgG-HRP detection
T1 construct: Recombinant hFc-tagged fusion protein expressed in 293F cells
T1 chain: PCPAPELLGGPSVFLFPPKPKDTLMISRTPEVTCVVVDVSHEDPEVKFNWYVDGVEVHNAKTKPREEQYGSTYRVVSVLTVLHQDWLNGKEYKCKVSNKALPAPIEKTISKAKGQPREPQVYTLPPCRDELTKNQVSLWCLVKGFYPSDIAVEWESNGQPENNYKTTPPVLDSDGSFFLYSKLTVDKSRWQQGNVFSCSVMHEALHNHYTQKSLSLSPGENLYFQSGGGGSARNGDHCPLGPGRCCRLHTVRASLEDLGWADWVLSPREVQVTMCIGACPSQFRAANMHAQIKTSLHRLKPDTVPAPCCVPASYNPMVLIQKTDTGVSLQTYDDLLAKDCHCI
Protocol: (§1) The ELISA assay was performed to measure the inhibitory activity of anti-GDF15 antibodies in concentration gradients to block GDF15 binding to GFRAL receptor. IC₅₀ values were used as a measure for neutralizing activity of candidate molecules. Briefly, 96-well plates were coated with 100 ng/well of GFRAL-his protein (SEQ ID NO: 74), and incubated for 1 h at 37° C. The plates were washed with PBST and then blocked for 1 hour at 37° C. with 1% BSA. Gradient-diluted antibodies (dose range 0˜10 μg/ml) was added into each well, immediately followed by equal volume of human GDF15-hFc protein ([…]). After incubation and washing, 100 μl of anti-human IgG secondary antibody (goat anti-human IgG-HRP, Sigma, A8667) was added to each well. Finally, TMB solution (100 μl/well) was added. 2M H₂SO₄ was used to stop the reaction. The OD450 was measured and the binding curve was generated by PRISM to calculate the IC₅₀ value.

human GDF15-his [2] = biological target: T2, human GDF15-his (human); assay: ELISA; antibody coated, human GDF15-his titrated, anti-his-HRP detection
T2 construct: Recombinant His-tagged fusion protein expressed in 293F cells
T2 chain: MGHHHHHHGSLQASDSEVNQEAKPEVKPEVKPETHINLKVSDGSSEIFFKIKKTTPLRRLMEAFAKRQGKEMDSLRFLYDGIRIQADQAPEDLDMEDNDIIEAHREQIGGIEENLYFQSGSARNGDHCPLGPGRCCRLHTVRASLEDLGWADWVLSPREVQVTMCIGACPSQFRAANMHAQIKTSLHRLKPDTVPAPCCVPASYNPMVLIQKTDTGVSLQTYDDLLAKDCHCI
Protocol: (§2) ELISA binding assay: The purified monoclonal antibody was subjected to a binding assay with human GDF15-his protein. The binding assay was designed to characterize the binding activity of the anti-GDF15 antibody. Briefly, a 96-well plate was coated with anti-GDF15 antibody (200 ng/well) and incubated for 1 hour at 37° C. The plates were washed with PBST and then blocked for 1 hour at room temperature using 1% BSA. Then 100 µl/well of gradient-diluted human GDF15-his solution (dose range 0-50 μg/ml) was added into plates. After incubation, 100 μl of anti-his tag secondary antibody (anti-his-HRP (1:2000), Bersee, cat #BHR790) was added to each well. Finally, the TMB solution (100 μl/well) was added. 2M H₂SO₄ was used to stop the reaction. The OD450 was measured, and the binding curves were generated by PRISM software to analyze the affinity of candidate antibodies to human GDF15 antigen, and EC₅₀ value were calculated.

human GDF15-his [3] = biological target: T2, human GDF15-his; assay: cell-based or functional assay
human GDF15-his [4] = biological target: T2, human GDF15-his; assay: cell-based or functional assay
human GDF15-his [5] = biological target: T2, human GDF15-his; assay: cell-based or functional assay
human GDF15-his [6] = biological target: T2, human GDF15-his; assay: ELISA as in Example 2: plate coated with the antibody, graded human GDF15-his, anti-his-HRP, OD450; the sheet's x axis reads 'Log GDF15 Antibody (nM)'
Protocol: as §2

human GDF15-his [7] = biological target: T2, human GDF15-his; assay: cell-based or functional assay
human GDF15-his [8] = biological target: T2, human GDF15-his; assay: cell-based or functional assay
human GDF15-hFc [9] = biological target: T1, human GDF15-hFc; assay: competition ELISA as in Example 2; GFRAL-his coated, antibody titrated against human GDF15-hFc
Protocol: as §1

human GDF15-his [10] = biological target: T2, human GDF15-his; assay: ELISA as in Example 2: plate coated with the antibody, graded human GDF15-his, anti-his-HRP, OD450; the sheet's x axis reads 'Log GDF15 Antibody (nM)'
Protocol: as §2

human GDF15-his [11] = biological target: T2, human GDF15-his; assay: ELISA as in Example 2: plate coated with the antibody, graded human GDF15-his, anti-his-HRP, OD450; the sheet's x axis reads 'Log GDF15 antibody (nM)'
Protocol: as §2

IC50 (human GDF15-hFc [1]) [nM] | EC50 (human GDF15-his [2]) [nM] | IC50, 293T-GFRAL/RET-Luc SRE luciferase reporter cells stimulated with human GDF15-his (15 ng/ml) (human GDF15-his [3]) [nM] | IC50 (human GDF15-hFc [9]) [nM] | other results | Binder
1.44 | 44.4 | 0.17 | – | – | B1
1.32 | 31.3 | 0.21 | – | – | B2
1.28 | 43.1 | 0.15 | 2.49 | IC50 (read off the curve), SRE-luciferase signal in 293T-GFRAL/RET-Luc cells with human GDF15-his (human GDF15-his [4]): ~0.06 nM; IC50 (read off the curve), SRE-luciferase signal in 293T-GFRAL/RET-Luc cells with human GDF15-his (human GDF15-his [5]): ~0.1 nM; EC50 (read off the curve) (human GDF15-his [6]): ~80 nM; IC50 (read off the curve), SRE-luciferase signal in 293T-GFRAL/RET-Luc cells with human GDF15-his (human GDF15-his [7]): ~0.2 nM; IC50 (read off the curve), SRE-luciferase signal in 293T-GFRAL/RET-Luc cells with human GDF15-his (human GDF15-his [8]): ~0.05 nM; EC50 (read off the curve) (human GDF15-his [10]): ~60 nM; EC50 (read off the curve) (human GDF15-his [11]): ~200 nM | B3
1.56 | 68.9 | 0.18 | – | – | B4
1.98 | 54.8 | 0.27 | – | – | B5
0.82 | 30.9 | 0.18 | – | – | B6
– | – | – | 1.86 | EC50 (read off the curve) (human GDF15-his [6]): ~80 nM; IC50 (read off the curve), SRE-luciferase signal in 293T-GFRAL/RET-Luc cells with human GDF15-his (human GDF15-his [8]): ~0.06 nM | B7
– | – | – | 1.76 | IC50 (read off the curve), SRE-luciferase signal in 293T-GFRAL/RET-Luc cells with human GDF15-his (human GDF15-his [8]): ~0.06 nM; EC50 (read off the curve) (human GDF15-his [10]): ~60 nM | B8
– | – | – | 1.72 | IC50 (read off the curve), SRE-luciferase signal in 293T-GFRAL/RET-Luc cells with human GDF15-his (human GDF15-his [8]): ~0.06 nM; EC50 (read off the curve) (human GDF15-his [10]): ~60 nM | B9
– | – | – | 1.83 | IC50 (read off the curve), SRE-luciferase signal in 293T-GFRAL/RET-Luc cells with human GDF15-his (human GDF15-his [4]): ~0.05 nM; EC50 (read off the curve) (human GDF15-his [6]): ~80 nM | B10
– | – | – | 1.63 | IC50 (read off the curve), SRE-luciferase signal in 293T-GFRAL/RET-Luc cells with human GDF15-his (human GDF15-his [4]): ~0.08 nM; EC50 (read off the curve) (human GDF15-his [11]): ~200 nM | B11
– | – | – | 1.33 | IC50 (read off the curve), SRE-luciferase signal in 293T-GFRAL/RET-Luc cells with human GDF15-his (human GDF15-his [4]): ~0.08 nM; EC50 (read off the curve) (human GDF15-his [11]): ~200 nM | B12
– | – | – | 1.51 | IC50 (read off the curve), SRE-luciferase signal in 293T-GFRAL/RET-Luc cells with human GDF15-his (human GDF15-his [5]): ~0.2 nM; EC50 (read off the curve) (human GDF15-his [11]): ~200 nM | B13
2.28 | 66.5 | – | – | – | B14
